Results reported in patent WO1997032021A1.

How the values were obtained:
[1] = molecular target: HLA-A3 molecule on the T2-A3 cell line; assay: T2-A3 MHC stabilisation, w6/32 indirect immunofluorescence, flow cytometry; peptide at 100 uM
[2] = molecular target: HLA-A3 molecule on the T2-A3 cell line; assay: T2-A3 MHC stabilisation, w6/32 indirect immunofluorescence, flow cytometry; peptide at 10 uM
[3] = molecular target: HLA-A3 molecule on the T2-A3 cell line; assay: T2-A3 MHC stabilisation, w6/32 indirect immunofluorescence, flow cytometry; peptide at 1 uM

B1: HLA-A3 (5-13) peptide, based on CDR-H3 positions 5-13 of 105AD7 (peptide)
peptide: DFWSGYLEY
An Expression of MHC (FR), fluorescence ratio [1] of 1.3, an Expression of MHC (FR), fluorescence ratio [2] of 1.3 and an Expression of MHC (FR), fluorescence ratio [3] of 1.8 were found for B1 in this work.

B2: HLA-A3 (1-10) peptide, based on CDR-H3 positions 1-10 of 105AD7 (peptide)
peptide: VLYYDFWSGY
An Expression of MHC (FR), fluorescence ratio [1] of 1.8, an Expression of MHC (FR), fluorescence ratio [2] of 1.8 and an Expression of MHC (FR), fluorescence ratio [3] of 1.2 were found for B2 in this work.
